Source: PMC9098913, “In vitro reconstitution of Escherichia coli divisome activation” (Nature Communications, 2022)

Test: Diffusion coefficient of His-tagged FtsAs and His-SUMO on Tris-NTA membranes (FRAP)
Experimental: To study colocalization of His-tagged variants of FtsA, 0.5–1 µM of Cy5 labelled His-tagged FtsAs were added to the chamber, incubated for 20 min and washed 6x with reaction buffer. […] To control the density of membrane-bound FtsA, SUVs without and with Tris-NTA lipids were mixed to obtain the respective Tris-NTA concentrations. To perform FRET/FRAP experiments, equimolar concentrations of Cy3 and Cy5 labelled His-tagged FtsAs (total 0.5–1 µM) or His-SUMO-Cys were added to a chamber and treated as above. […] FRAP experiments were performed as described before.
Bleaching the acceptor dye leads to an increase in the donor intensity, which can be used to quantify the Foerster Resonance energy transfer (FRET)[48]. FRET efficiency was quantified with E%=Ipost/Ipost+Ipre⋅100 , where Ipost is the intensity of the […] and Ipre is the […]. […] To extract the contribution of both processes, we adjusted a routine recently published by Gerganova et al.[33]. In short, the code provides the contribution of both modes of recovery by analysing the shape of the fluorescence recovery profile. […] Contribution of diffusion leads to a change of the slope of the outer borders of the bleached region (S4h right). Thus, by measuring the change of the slope of the border recovery, diffusion and simple on/off binding can be distinguished. We developed “FRAPdiff”, a graphical user interface, which uses the original fit routine by David Rutkowski. It can be used directly on.tiff movies with annotated bleach regions as ImageJ ROIs. In addition, we added optional bleach correction, user selectable projection axis (x or y), and optional mirroring of the recovery profiles, if bleaching was not symmetric. The original fit routine for estimating the recovery and diffusion dynamics can be found at https://github.com/davidmrutkowski/1DReflectingDiffusion. FRAPdiff is available at 10.5281/zenodo.6400639[49] under the GPLv3 open-source license.

B1: FtsA R286W-His6: FtsA R286W (1-405) with amphipathic helix replaced by C-terminal His-tag (protein)
chain: MIKATDRKLVVGLEIGTAKVAALVGEVLPDGMVNIIGVGSCPSRGMDKGGVNDLESVVKCVQRAIDQAELMADCQISSVYLALSGKHISCQNEIGMVPISEEEVTQEDVENVVHTAKSVRVRDEHRVLHVIPQEYAIDYQEGIKNPVGLSGVRMQAKVHLITCHNDMAKNIVKAVERCGLKVDQLIFAGLASSYSVLTEDERELGVCVVDIGGGTMDIAVYTGGALRHTKVIPYAGNVVTSDIAYAFGTPPSDAEAIKVRHGCALGSIVGKDESVEVPSVGGRPPWSLQRQTLAEVIEPRYTELLNLVNEEILQLQEKLRQQGVKHHLAAGIVLTGGAAQIEGLAACAQRVFHTQVRIGAPLNITGLTDYAQEPYYSTAVGLLHYGKESHLNGEAEVEKRVTASV
modifications: Cy3 or Cy5 at the N-terminus in the labelled form (sortagging as for native FtsA); left off: TwinStrep-SUMO, N-terminal, cleaved | 5xGlycine tag, N-terminal, kept | His6, C-terminal, kept
For B1, the “Diffusion Coefficient” value (0.1% Tris NTA, + FtsZ, mean (n: WT 2, R286W 3)) was 0.17 µm2/s, the “Diffusion Coefficient” value (0.1% Tris NTA, + FtsZ, replicate Exp1) was 0.12 µm2/s and the “Diffusion Coefficient” value (0.1% Tris NTA, + FtsZ, replicate Exp2) was 0.17 µm2/s. The “Diffusion Coefficient” value (0.1% Tris NTA, + FtsZ, replicate Exp3) was 0.22 µm2/s, the “Diffusion Coefficient” value (0.1% Tris NTA, without FtsZ, mean (n: WT 2, R286W 3, SUMO 2)) was 0.50 µm2/s and the “Diffusion Coefficient” value (0.1% Tris NTA, without FtsZ, replicate Exp1) was 0.48 µm2/s. The “Diffusion Coefficient” value (0.1% Tris NTA, without FtsZ, replicate Exp2) was 0.53 µm2/s, the “Diffusion Coefficient” value (0.1% Tris NTA, without FtsZ, replicate Exp3) was 0.50 µm2/s and the “Diffusion Coefficient” value (0.4% Tris NTA, + FtsZ, mean (n: WT 2, R286W 3)) was 0.08 µm2/s. For the same molecule, the “Diffusion Coefficient” value (0.4% Tris NTA, + FtsZ, replicate Exp1) was 0.12 µm2/s, the “Diffusion Coefficient” value (0.4% Tris NTA, + FtsZ, replicate Exp2) was 0.11 µm2/s and the “Diffusion Coefficient” value (0.4% Tris NTA, + FtsZ, replicate Exp3) was 0.0041 µm2/s. The “Diffusion Coefficient” value (0.4% Tris NTA, without FtsZ, mean (n: WT 2, R286W 3, SUMO 3)) was 0.44 µm2/s, the “Diffusion Coefficient” value (0.4% Tris NTA, without FtsZ, replicate Exp1) was 0.31 µm2/s and the “Diffusion Coefficient” value (0.4% Tris NTA, without FtsZ, replicate Exp2) was 0.56 µm2/s. The “Diffusion Coefficient” value (0.4% Tris NTA, without FtsZ, replicate Exp3) was 0.45 µm2/s, the “Diffusion Coefficient” value (0.6% Tris NTA, + FtsZ, mean (n: WT 5, R286W 5)) was 0.0744 µm2/s and the “Diffusion Coefficient” value (0.6% Tris NTA, + FtsZ, replicate Exp1) was 0.12 µm2/s. The “Diffusion Coefficient” value (0.6% Tris NTA, + FtsZ, replicate Exp2) was 2.02e-8 µm2/s, the “Diffusion Coefficient” value (0.6% Tris NTA, + FtsZ, replicate Exp3) was 9.38e-5 µm2/s and the “Diffusion Coefficient” value (0.6% Tris NTA, + FtsZ, replicate Exp4) was 0.15 µm2/s. For the same molecule, the “Diffusion Coefficient” value (0.6% Tris NTA, + FtsZ, replicate Exp5) was 0.11 µm2/s, the “Diffusion Coefficient” value (0.6% Tris NTA, without FtsZ, mean (n: WT 4, R286W 5, SUMO 4)) was 0.33 µm2/s and the “Diffusion Coefficient” value (0.6% Tris NTA, without FtsZ, replicate Exp1) was 0.43 µm2/s. For the same molecule, the “Diffusion Coefficient” value (0.6% Tris NTA, without FtsZ, replicate Exp2) was 0.38 µm2/s, the “Diffusion Coefficient” value (0.6% Tris NTA, without FtsZ, replicate Exp3) was 0.25 µm2/s and the “Diffusion Coefficient” value (0.6% Tris NTA, without FtsZ, replicate Exp4) was 0.30 µm2/s. The “Diffusion Coefficient” value (0.6% Tris NTA, without FtsZ, replicate Exp5) was 0.28 µm2/s, the “Diffusion Coefficient” value (0.8% Tris NTA, + FtsZ, mean) was 0.04 µm2/s and the “Diffusion Coefficient” value (0.8% Tris NTA, + FtsZ, replicate Exp1) was 0.07 µm2/s. For the same molecule, the “Diffusion Coefficient” value (0.8% Tris NTA, + FtsZ, replicate Exp2) was 0.02 µm2/s, the “Diffusion Coefficient” value (0.8% Tris NTA, + FtsZ, replicate Exp3) was 0.0271 µm2/s and the “Diffusion Coefficient” value (0.8% Tris NTA, + FtsZ, replicate Exp4) was 0.0336 µm2/s. The “Diffusion Coefficient” value (0.8% Tris NTA, + FtsZ, replicate Exp5) was 0.0229 µm2/s, the “Diffusion Coefficient” value (0.8% Tris NTA, + FtsZ, replicate Exp6) was 0.06 µm2/s and the “Diffusion Coefficient” value (0.8% Tris NTA, without FtsZ, mean) was 0.22 µm2/s. The “Diffusion Coefficient” value (0.8% Tris NTA, without FtsZ, replicate Exp1) was 0.17 µm2/s, the “Diffusion Coefficient” value (0.8% Tris NTA, without FtsZ, replicate Exp2) was 0.22 µm2/s and the “Diffusion Coefficient” value (0.8% Tris NTA, without FtsZ, replicate Exp3) was 0.26 µm2/s. The “Diffusion Coefficient” value (0.8% Tris NTA, without FtsZ, replicate Exp4) was 0.17 µm2/s, the “Diffusion Coefficient” value (0.8% Tris NTA, without FtsZ, replicate Exp5) was 0.30 µm2/s and the “Diffusion Coefficient” value (0.8% Tris NTA, without FtsZ, replicate Exp6) was 0.20 µm2/s. For the same molecule, the “Diffusion Coefficient” value (1% Tris NTA, + FtsZ, mean) was 0.04 µm2/s, the “Diffusion Coefficient” value (1% Tris NTA, + FtsZ, replicate Exp1) was 0.0437 µm2/s and the “Diffusion Coefficient” value (1% Tris NTA, + FtsZ, replicate Exp2) was 0.0187 µm2/s. The “Diffusion Coefficient” value (1% Tris NTA, + FtsZ, replicate Exp3) was 0.046 µm2/s, the “Diffusion Coefficient” value (1% Tris NTA, + FtsZ, replicate Exp4) was 0.0142 µm2/s and the “Diffusion Coefficient” value (1% Tris NTA, + FtsZ, replicate Exp5) was 0.03 µm2/s. The “Diffusion Coefficient” value (1% Tris NTA, + FtsZ, replicate Exp6) was 0.09 µm2/s, the “Diffusion Coefficient” value (1% Tris NTA, without FtsZ, mean) was 0.22 µm2/s and the “Diffusion Coefficient” value (1% Tris NTA, without FtsZ, replicate Exp1) was 0.32 µm2/s. The “Diffusion Coefficient” value (1% Tris NTA, without FtsZ, replicate Exp2) was 0.13 µm2/s, the “Diffusion Coefficient” value (1% Tris NTA, without FtsZ, replicate Exp3) was 0.42 µm2/s and the “Diffusion Coefficient” value (1% Tris NTA, without FtsZ, replicate Exp4) was 0.24 µm2/s. For the same molecule, the “Diffusion Coefficient” value (1% Tris NTA, without FtsZ, replicate Exp5) was 0.09 µm2/s, the “Diffusion Coefficient” value (1% Tris NTA, without FtsZ, replicate Exp6) was 0.14 µm2/s and the Diffusion Coefficient (Tris 0.10 %, + FtsZ) was 0.17 µm2/s. It also gave a Diffusion Coefficient (Tris 0.10 %, without FtsZ) of 0.50 µm2/s, a Diffusion Coefficient (Tris 0.40 %, + FtsZ) of 0.08 µm2/s and a Diffusion Coefficient (Tris 0.40 %, without FtsZ) of 0.44 µm2/s. The Diffusion Coefficient (Tris 0.60 %, + FtsZ) was 0.0744 µm2/s, the Diffusion Coefficient (Tris 0.60 %, without FtsZ) was 0.33 µm2/s and the Diffusion Coefficient (Tris 0.80 %, + FtsZ) was 0.04 µm2/s. For the same molecule, the Diffusion Coefficient (Tris 0.80 %, without FtsZ) was 0.22 µm2/s, the Diffusion Coefficient (Tris 1.00 %, + FtsZ) was 0.04 µm2/s and the Diffusion Coefficient (Tris 1.00 %, without FtsZ) was 0.22 µm2/s. The Diffusion Coefficient (Tris 2.00 %, + FtsZ) was 0.02 µm2/s, the Diffusion Coefficient (Tris 2.00 %, without FtsZ) was 0.035 µm2/s and the “Diffusion Coefficient” value ([…] Tris NTA, + FtsZ, mean (n: WT 2, R286W 3)) was 0.14 µm2/s. The “Diffusion Coefficient” value ([…] Tris NTA, + FtsZ, replicate Exp1) was 0.34 µm2/s, the “Diffusion Coefficient” value ([…] Tris NTA, + FtsZ, replicate Exp2) was 0.000447 µm2/s and the “Diffusion Coefficient” value ([…] Tris NTA, + FtsZ, replicate Exp3) was 0.07 µm2/s. For the same molecule, the “Diffusion Coefficient” value ([…] Tris NTA, without FtsZ, mean (n: WT 2, R286W 3, SUMO 3)) was 0.42 µm2/s, the “Diffusion Coefficient” value ([…] Tris NTA, without FtsZ, replicate Exp1) was 0.55 µm2/s and the “Diffusion Coefficient” value ([…] Tris NTA, without FtsZ, replicate Exp2) was 0.25 µm2/s. The “Diffusion Coefficient” value ([…] Tris NTA, without FtsZ, replicate Exp3) was 0.47 µm2/s, the Diffusion Coefficient ([…] Tris-NTA, + N (FtsNcyto), mean) was 4.17E-05 µm2/s and the Diffusion Coefficient ([…] Tris-NTA, + N/Z, Exp. 1) was 2.50E-03 µm2/s. The Diffusion Coefficient ([…] Tris-NTA, + N/Z, Exp. 2) was 2.00E-05 µm2/s, the Diffusion Coefficient ([…] Tris-NTA, + N/Z, Exp. 3) was 1.00E-05 µm2/s and the Diffusion Coefficient ([…] Tris-NTA, + N/Z, mean) was 8.43E-04 µm2/s. The Diffusion Coefficient ([…] Tris-NTA, + N, Exp. 1) was 7.50E-05 µm2/s, the Diffusion Coefficient ([…] Tris-NTA, + N, Exp. 2) was 3.00E-05 µm2/s and the Diffusion Coefficient ([…] Tris-NTA, + N, Exp. 3) was 2.00E-05 µm2/s. For the same molecule, the Diffusion Coefficient ([…] Tris-NTA, + Z (FtsZ), mean) was 0.05 µm2/s, the Diffusion Coefficient ([…] Tris-NTA, + Z, Exp. 1) was 0.0229 µm2/s and the Diffusion Coefficient ([…] Tris-NTA, + Z, Exp. 2) was 0.04 µm2/s. It also gave a Diffusion Coefficient ([…] Tris-NTA, + Z, Exp. 3) of 0.08 µm2/s, a Diffusion Coefficient ([…] Tris-NTA, alone, Exp. 1) of 0.14 µm2/s and a Diffusion Coefficient ([…] Tris-NTA, alone, Exp. 2) of 0.0561 µm2/s. For the same molecule, the Diffusion Coefficient ([…] Tris-NTA, alone, Exp. 3) was 0.26 µm2/s, the Diffusion Coefficient ([…] Tris-NTA, alone, mean) was 0.15 µm2/s and the Diffusion Coefficient (with FtsNcyto, mean ± s.d., p-value 0.01) was 8.43 × 10^−4 ± 1.17 × 10^−3 µm^2/s. For the same molecule, the Diffusion Coefficient (without FtsNcyto, mean ± s.d., p-value 0.01) was 0.05 ± 0.04 µm^2/s.
